How the values were obtained:
[1] = target: BoLA-3*00201 (JSP.1) heavy chain folded with 125I-radiolabeled bovine met-β2m (cattle (Holstein) | bovine) (UniProt P01888); assay: scintillation proximity assay
[2] = target: BoLA-3*00201 (JSP.1) heavy chain folded with recombinant human β2m (cattle (Holstein) | human) (UniProt P61769); assay: AlphaScreen or HTRF
[3] = target: BoLA-T2C heavy chain folded with recombinant human β2m (cattle (Bos taurus×Bos indicus) | human) (UniProt P61769); assay: AlphaScreen or HTRF
[4] = target: BoLA-1*02301 (D18.4) heavy chain folded with recombinant human β2m (cattle (Holstein) | human) (UniProt P61769); assay: AlphaScreen or HTRF
[5] = target: BoLA-3*00101 (AW10) heavy chain folded with 125I-radiolabeled bovine met-β2m (cattle (Boran) | bovine) (UniProt P01888); assay: scintillation proximity assay
[6] = target: BoLA-2*01201 (T2A) heavy chain folded with 125I-radiolabeled bovine met-β2m (cattle (Holstein) | bovine) (UniProt P01888); assay: scintillation proximity assay
[7] = target: BoLA-2*01201 (T2A) heavy chain folded with recombinant human β2m (cattle (Holstein) | human) (UniProt P61769); assay: AlphaScreen or HTRF
[8] = target: BoLA-1*02301 (D18.4) heavy chain folded with 125I-radiolabeled bovine met-β2m (cattle (Holstein) | bovine) (UniProt P01888); assay: scintillation proximity assay

For Tp2 96–104 epitope […] (peptide), the half-life of the pBoLA-I complex [1] was 4 h, the EC50 [2] was 767 nM and the EC50 [3] was 144 nM.

Substance Ta9 epitope […] (peptide) has a Kd [2] of 309 nM and a Kd [4] of 74 nM.

Tp4 328–336 epitope … (peptide) gave a half-life of the pBoLA-I complex [1] of 2 h and a half-life of the pBoLA-I complex [5] of 23 h.

Tp8 379–387 epitope […] (peptide) gave a half-life of the pBoLA-I complex [1] of 2 h and a half-life of the pBoLA-I complex [5] of 14 h.

Tp2 49–59 epitope […] (peptide) was tested, and the half-life of the pBoLA-I complex [6] was 2 h and the EC50 [7] was 364 nM.

Tp5 87–95 epitope … (peptide) gave a half-life of the pBoLA-I complex [8] of 18 h.

Tp2 98–106 epitope […] (peptide) was tested, and the half-life of the pBoLA-I complex [6] was 3 h.

For Tp9 199–228 epitope […] (peptide), the half-life of the pBoLA-I complex [8] was 4 h.
